Assay results: IntAct's records for PubMed 31515488

B1: Vesicle transport through interaction with t-SNAREs homolog 1B (Homo sapiens), Q9UEU0 (parent)
chain: MASSAASSEHFEKLHEIFRGLHEDLQGVPERLLGTAGTEEKKKLIRDFDEKQQEANETLAEMEEELRYAPLSFRNPMMSKLRNYRKDLAKLHREVRSTPLTATPGGRGDMKYGIYAVENEHMNRLQSQRAMLLQGTESLNRATQSIERSHRIATETDQIGSEIIEELGEQRDQLERTKSRLVNTSENLSKSRKILRSMSRKVTTNKLLLSIIILLELAILGGLVYYKFFRSH
partner: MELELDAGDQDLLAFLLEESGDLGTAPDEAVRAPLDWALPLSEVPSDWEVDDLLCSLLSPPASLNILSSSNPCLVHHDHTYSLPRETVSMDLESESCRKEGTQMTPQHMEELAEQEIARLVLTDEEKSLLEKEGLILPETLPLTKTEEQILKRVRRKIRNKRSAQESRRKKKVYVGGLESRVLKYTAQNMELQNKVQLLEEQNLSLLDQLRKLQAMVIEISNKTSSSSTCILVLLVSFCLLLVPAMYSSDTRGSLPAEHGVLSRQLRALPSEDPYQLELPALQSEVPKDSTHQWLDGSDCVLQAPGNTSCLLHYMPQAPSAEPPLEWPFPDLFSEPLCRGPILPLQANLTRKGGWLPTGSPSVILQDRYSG
B2: Uridine diphosphate glucose pyrophosphatase NUDT22 (Homo sapiens), Q9BRQ3 (parent)
chain: MDPEVTLLLQCPGGGLPQEQIQAELSPAHDRRPLPGGDEAITAIWETRLKAQPWLFDAPKFRLHSATLAPIGSRGPQLLLRLGLTSYRDFLGTNWSSSAAWLRQQGATDWGDTQAYLADPLGVGAALATADDFLVFLRRSRQVAEAPGLVDVPGGHPEPQALCPGGSPQHQDLAGQLVVHELFSSVLQEICDEVNLPLLTLSQPLLLGIARNETSAGRASAEFYVQCSLTSEQVRKHYLSGGPEAHESTGIFFVETQNVQRLLETEMWAELCPSAKGAIILYNRVQGSPTGAALGSPALLPPL
partner: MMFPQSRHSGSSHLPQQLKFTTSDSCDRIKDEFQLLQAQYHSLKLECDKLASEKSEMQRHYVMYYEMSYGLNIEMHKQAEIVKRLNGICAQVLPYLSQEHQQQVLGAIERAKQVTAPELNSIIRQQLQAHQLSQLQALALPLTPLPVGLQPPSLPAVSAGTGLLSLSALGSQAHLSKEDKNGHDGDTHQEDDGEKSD
B3: Mitochondrial fission 1 protein (Homo sapiens), Q9Y3D6 (parent)
chain: MEAVLNELVSVEDLLKFEKKFQSEKAAGSVSKSTQFEYAWCLVRSKYNDDIRKGIVLLEELLPKGSKEEQRDYVFYLAVGNYRLKEYEKALKYVRGLLQTEPQNNQAKELERLIDKAMKKDGLVGMAIVGGMALGVAGLAGLIGLAVSKSKS
partner: B1 partner
B4: Transmembrane protein 79 (Homo sapiens), Q9BSE2 (parent)
chain: MTEQETLALLEVKRSDSPEKSSPQALVPNGRQPEGEGGAESPGAESLRVGSSAGSPTAIEGAEDGLDSTVSEAATLPWGTGPQPSAPFPDPPGWRDIEPEPPESEPLTKLEELPEDDANLLPEKAARAFVPIDLQCIERQPQEDLIVRCEAGEGECRTFMPPRVTHPDPTERKWAEAVVRPPGCSCGGCGSCGDREWLRAVASVGAALILFPCLLYGAYAFLPFDVPRLPTMSSRLIYTLRCGVFATFPIVLGILVYGLSLLCFSALRPFGEPRREVEIHRRYVAQSVQLFILYFFNLAVLSTYLPQDTLKLLPLLTGLFAVSRLIYWLTFAVGRSFRGFGYGLTFLPLLSMLMWNLYYMFVVEPERMLTATESRLDYPDHARSASDYRPRPWG
partner: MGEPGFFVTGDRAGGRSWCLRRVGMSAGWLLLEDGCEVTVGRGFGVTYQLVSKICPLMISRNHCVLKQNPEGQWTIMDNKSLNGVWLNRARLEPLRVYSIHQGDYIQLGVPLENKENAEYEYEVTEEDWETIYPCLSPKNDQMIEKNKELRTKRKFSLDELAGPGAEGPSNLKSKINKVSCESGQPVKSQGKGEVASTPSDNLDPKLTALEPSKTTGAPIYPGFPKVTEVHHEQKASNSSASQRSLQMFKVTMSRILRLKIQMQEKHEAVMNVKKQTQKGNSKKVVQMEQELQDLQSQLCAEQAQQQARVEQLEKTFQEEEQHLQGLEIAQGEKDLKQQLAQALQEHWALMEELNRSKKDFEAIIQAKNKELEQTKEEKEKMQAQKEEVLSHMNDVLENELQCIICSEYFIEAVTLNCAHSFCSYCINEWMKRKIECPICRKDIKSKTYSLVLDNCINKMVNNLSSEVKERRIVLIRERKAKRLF
B5: Mothers against decapentaplegic homolog 4 (Homo sapiens), Q13485 (parent)
chain: MDNMSITNTPTSNDACLSIVHSLMCHRQGGESETFAKRAIESLVKKLKEKKDELDSLITAITTNGAHPSKCVTIQRTLDGRLQVAGRKGFPHVIYARLWRWPDLHKNELKHVKYCQYAFDLKCDSVCVNPYHYERVVSPGIDLSGLTLQSNAPSSMMVKDEYVHDFEGQPSLSTEGHSIQTIQHPPSNRASTETYSTPALLAPSESNATSTANFPNIPVASTSQPASILGGSHSEGLLQIASGPQPGQQQNGFTGQPATYHHNSTTTWTGSRTAPYTPNLPHHQNGHLQHHPPMPPHPGHYWPVHNELAFQPPISNHPAPEYWCSIAYFEMDVQVGETFKVPSSCPIVTVDGYVDPSGGDRFCLGQLSNVHRTEAIERARLHIGKGVQLECKGEGDVWVRCLSDHAVFVQSYYLDREAGRAPGDAVHKIYPSAYIKVFDLRQCHRQMQQQAATAQAAAAAQAAAVAGNIPGPGSVGGIAPAISLSAAAGIGVDDLRRLCILRMSFVKGWGPDYPRQSIKETPCWIEIHLHRALQLLDEVLHTMPIADPQPLD
partner: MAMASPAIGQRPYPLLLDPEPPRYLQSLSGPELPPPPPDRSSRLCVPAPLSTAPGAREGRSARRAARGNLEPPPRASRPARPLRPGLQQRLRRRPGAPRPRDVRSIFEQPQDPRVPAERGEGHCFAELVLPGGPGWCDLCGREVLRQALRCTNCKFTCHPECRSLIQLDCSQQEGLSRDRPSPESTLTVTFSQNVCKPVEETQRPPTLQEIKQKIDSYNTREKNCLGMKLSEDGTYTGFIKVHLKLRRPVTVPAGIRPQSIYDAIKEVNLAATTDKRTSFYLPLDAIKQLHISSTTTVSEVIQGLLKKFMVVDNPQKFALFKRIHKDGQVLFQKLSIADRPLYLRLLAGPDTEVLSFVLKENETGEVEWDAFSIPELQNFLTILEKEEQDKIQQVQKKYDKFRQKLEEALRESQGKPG

Variants of: B1
Details: with creb3_human CREB3, O43889

effect of a mutation on the interaction	Variant
with no effect	MASSAASSEHFEKLHEIFRGLHEDLQGVPERLLGTAGTEEKKKLIRDFDEKQQEANETLAEMEEELRYAPLSFRNPMMSKLRNYRKDLAKLHREVRSTPLTATPGGRGDMKYGIYAVENEHMNRLQSQRAMLLQGTESLNRATQSIERSHRIATETDQIGSEIIEELGEQRDQLEHTKSRLVNTSENLSKSRKILRSMSRKVTTNKLLLSIIILLELAILGGLVYYKFFRSH [R176H]
with no effect	MASSAASSEHFEKLHEIFRGLHEDLQGVPERLLGTAGTEEKKKLIRDFDEKQQEANETLAEMEEELRYAPLSFRNPMMSKLRNYRKDLAKLHREVRSTPLTATPGGRGDMKYGIYAVENEHMNQLQSQRAMLLQGTESLNRATQSIERSHRIATETDQIGSEIIEELGEQRDQLERTKSRLVNTSENLSKSRKILRSMSRKVTTNKLLLSIIILLELAILGGLVYYKFFRSH [R124Q]

Variants of: B2
Details: with tle5_human TLE5, Q08117

effect of a mutation on the interaction	Variant
with no effect	MDPEVTLLLQCPGGGLPQEQIQAELSPAHDRRPLPCGDEAITAIWETRLKAQPWLFDAPKFRLHSATLAPIGSRGPQLLLRLGLTSYRDFLGTNWSSSAAWLRQQGATDWGDTQAYLADPLGVGAALATADDFLVFLRRSRQVAEAPGLVDVPGGHPEPQALCPGGSPQHQDLAGQLVVHELFSSVLQEICDEVNLPLLTLSQPLLLGIARNETSAGRASAEFYVQCSLTSEQVRKHYLSGGPEAHESTGIFFVETQNVQRLLETEMWAELCPSAKGAIILYNRVQGSPTGAALGSPALLPPL [G36C]

Variants of: B3
Details: with creb3_human CREB3, O43889

effect of a mutation on the interaction	Variant
with no effect	MEAVLNELVSVEDLLKFEKKFQSEKAAGSVSKSTQFEYAWCLVRSKYNDDIRKGIVLLEELLPKGSKEEQRDYVFYLAVGNYRLKEYEKALKYVRGLLQTEPQNNQAKELERLIDKAMKKDGLMGMAIVGGMALGVAGLAGLIGLAVSKSKS [V124M]

Variants of: B4
Details: with rnf8_human RNF8, O76064

effect of a mutation on the interaction	Variant
with no effect	MTEQETLALLEVKRSDSPEKSSPQALVPNGRQPEGEGGAESPGAESLRVGSSAGSPTAIEGAEDGLDSTVSEAATLPWGTGPQPSAPFPDPPGWRDIEPEPPETEPLTKLEELPEDDANLLPEKAARAFVPIDLQCIERQPQEDLIVRCEAGEGECRTFMPPRVTHPDPTERKWAEAVVRPPGCSCGGCGSCGDREWLRAVASVGAALILFPCLLYGAYAFLPFDVPRLPTMSSRLIYTLRCGVFATFPIVLGILVYGLSLLCFSALRPFGEPRREVEIHRRYVAQSVQLFILYFFNLAVLSTYLPQDTLKLLPLLTGLFAVSRLIYWLTFAVGRSFRGFGYGLTFLPLLSMLMWNLYYMFVVEPERMLTATESRLDYPDHARSASDYRPRPWG [S104T]
with no effect	MTEQETLALLEVKRSDSPEKSSPQALVPNGRQPEGEGGAESPGAESLRVGSSAGSPTAIEGAEDGLDSTVSEAATLPWGTGPQPSAPFPDPPGWRDIEPEPPESEPLTKLEELPEDDANLLPEKAARAFVPIDLQCIERQPQEDLIMRCEAGEGECRTFMPPRVTHPDPTERKWAEAVVRPPGCSCGGCGSCGDREWLRAVASVGAALILFPCLLYGAYAFLPFDVPRLPTMSSRLIYTLRCGVFATFPIVLGILVYGLSLLCFSALRPFGEPRREVEIHRRYVAQSVQLFILYFFNLAVLSTYLPQDTLKLLPLLTGLFAVSRLIYWLTFAVGRSFRGFGYGLTFLPLLSMLMWNLYYMFVVEPERMLTATESRLDYPDHARSASDYRPRPWG [V147M]
with no effect	MTEQETLALLEVKRSDSPEKSSPQALVPNGRQPEGEGGAESPGAESLRVGSSAGSPTAIEGAEDGLDSTVSEAATLPWGTGPQPSAPFPDPPGWRDIEPEPPESEPLTKLEELPEDDANLLPEKAARAFVPIDLQCIERQPQEGLIVRCEAGEGECRTFMPPRVTHPDPTERKWAEAVVRPPGCSCGGCGSCGDREWLRAVASVGAALILFPCLLYGAYAFLPFDVPRLPTMSSRLIYTLRCGVFATFPIVLGILVYGLSLLCFSALRPFGEPRREVEIHRRYVAQSVQLFILYFFNLAVLSTYLPQDTLKLLPLLTGLFAVSRLIYWLTFAVGRSFRGFGYGLTFLPLLSMLMWNLYYMFVVEPERMLTATESRLDYPDHARSASDYRPRPWG [D144G]

Variants of: B5
Details: with rasf5_human RASSF5, Q8WWW0

effect of a mutation on the interaction	Variant
with no effect	R361C
with no effect	L533R
with no effect	Y353S
